The text below walks through data of publication PMC10026030, “A short-chain acyl-CoA synthetase that supports branched-chain fatty acid synthesis in Staphylococcus aureus” (The Journal of Biological Chemistry, 2023).

Where two headings read alike, the source gives them in different places. Where only a bound is given, the exact number is not on record here.

For series [1], the target named is T1, MbcS (methylbutyryl-CoA synthetase; SAUSA300_2542) (Staphylococcus aureus, UniProt A0A0H2XHR6).
T1 sequence (A0A0H2XHR6 1-532): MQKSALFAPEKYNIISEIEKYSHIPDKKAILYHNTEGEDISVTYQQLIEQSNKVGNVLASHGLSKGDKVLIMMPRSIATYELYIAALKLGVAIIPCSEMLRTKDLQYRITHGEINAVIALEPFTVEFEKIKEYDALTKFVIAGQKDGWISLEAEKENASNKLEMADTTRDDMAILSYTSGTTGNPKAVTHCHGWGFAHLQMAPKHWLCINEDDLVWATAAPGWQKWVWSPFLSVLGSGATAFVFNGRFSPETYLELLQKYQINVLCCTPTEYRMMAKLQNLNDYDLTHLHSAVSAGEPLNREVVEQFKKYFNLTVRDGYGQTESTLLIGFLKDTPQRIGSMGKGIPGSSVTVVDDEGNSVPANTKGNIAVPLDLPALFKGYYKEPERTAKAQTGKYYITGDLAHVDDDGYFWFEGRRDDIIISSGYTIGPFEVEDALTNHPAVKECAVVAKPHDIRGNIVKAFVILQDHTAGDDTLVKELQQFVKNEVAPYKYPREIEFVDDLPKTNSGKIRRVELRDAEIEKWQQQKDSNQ
The series can be described thus: LC-MS/MS of acyl-CoA product, Michaelis-Menten fit. Conditions: 2.5 mM ATP, 2.5 mM Mg2+, 200 μM CoA, Tris pH 7.5, 37 °C.

Substrate in series [2]: CCCC(=O)O
The series can be described thus: purified protein. Conditions: 2.5 mM ATP, 2.5 mM Mg2+, 200 μM CoA, Tris pH 7.5, 37 °C.

Substrate in series [3]: Nc1ncnc2c1ncn2[C@@H]1O[C@H](COP(=O)(O)OP(=O)(O)OP(=O)(O)O)[C@@H](O)[C@H]1O
The series can be described thus: purified protein. Conditions: 2.5 mM Mg2+, 200 μM CoA, 50 μM aC5, Tris pH 7.5, 37 °C.

Substrate in series [4]: CC(C)(COP(=O)(O)OP(=O)(O)OC[C@H]1O[C@@H](n2cnc3c(N)ncnc32)[C@H](O)[C@@H]1OP(=O)(O)O)[C@@H](O)C(=O)NCCC(=O)NCCS
As to the kind of experiment: purified protein. Conditions: 2.5 mM ATP, 2.5 mM Mg2+, 50 μM aC5, Tris pH 7.5, 37 °C.

Take `CC(C)CC(=O)O` [iC5, isovalerate]: the Km in series [1] is more than 500 µM.

For the molecule `CC(C)C(=O)O` [iC4, isobutyrate], the Km in series [1] (read-out: apparent KM) was less than 10 µM.

B1: MbcS (methylbutyryl-CoA synthetase; SAUSA300_2542) (Staphylococcus aureus subsp. aureus USA300) (protein)
chain: MQKSALFAPEKYNIISEIEKYSHIPDKKAILYHNTEGEDISVTYQQLIEQSNKVGNVLASHGLSKGDKVLIMMPRSIATYELYIAALKLGVAIIPCSEMLRTKDLQYRITHGEINAVIALEPFTVEFEKIKEYDALTKFVIAGQKDGWISLEAEKENASNKLEMADTTRDDMAILSYTSGTTGNPKAVTHCHGWGFAHLQMAPKHWLCINEDDLVWATAAPGWQKWVWSPFLSVLGSGATAFVFNGRFSPETYLELLQKYQINVLCCTPTEYRMMAKLQNLNDYDLTHLHSAVSAGEPLNREVVEQFKKYFNLTVRDGYGQTESTLLIGFLKDTPQRIGSMGKGIPGSSVTVVDDEGNSVPANTKGNIAVPLDLPALFKGYYKEPERTAKAQTGKYYITGDLAHVDDDGYFWFEGRRDDIIISSGYTIGPFEVEDALTNHPAVKECAVVAKPHDIRGNIVKAFVILQDHTAGDDTLVKELQQFVKNEVAPYKYPREIEFVDDLPKTNSGKIRRVELRDAEIEKWQQQKDSNQ
Turning to B1, the results for the Km in “purified protein [2]”, in the series “purified protein [3]” and in the series “purified protein [4]” were 144 µM, 3.2 ± 0.2 µM and 49.3 ± 6.9 µM, respectively.
